Numbered stars: 1 amine (or outer) side, 2 acyl side, 3 side chain; on linkers, the order of the positions; unused ones are H or OH. Square brackets hold non-standard residues; d marks the D form. Side chains are listed from the residue outwards. Ends that are not written are not given here. * marks the point of attachment. C20 diacid = O=C(O)CCCCCCCCCCCCCCCCCCC(=O)*; γGlu = O=C(O)[C@H](CCC(=O)[*:2])N[*:1]; Trx = NC[C@H]1CC[C@H](C(=O)O)CC1; AEEA = NCCOCCOCC(=O)O; Aib = CC(C)(N)C(=O)O
B1: N{Alpha}([Aib8,Glu22,Arg26,Arg34]-GLP-1-(7-37)-peptidyl)-N{Epsilon}[2-[2-[2-[[2-[2-[2-[[(4S)-4-carboxy-4-[[4-[(19-carboxynonadecanoylamino)methyl]cyclohexanecar … (peptide)
peptide: H[Aib]EGTFTSDVSSYLEEQAAREFIAWLVRGRGK([AEEA-AEEA-γGlu-Trx-C20 diacid])GGSK([AEEA-AEEA-γGlu-Trx-C20 diacid])
notes: Double-acylated, C-terminally extended GLP-1 analogue made by SPPS
B2: N{Epsilon-27}-[2-[2-[2-[[2-[2-[2-[[(4S)-4-carboxy-4-[[4-[(19-carboxynonadecanoylamino)methyl]cyclohexanecarbonyl]amino]butanoyl]amino]ethoxy]ethoxy]acetyl]amino … (peptide)
peptide: H[Aib]EGTFTSDVSSYLEEQAARK([AEEA-AEEA-γGlu-Trx-C20 diacid])FIAWLVRGRGGGGSK([AEEA-AEEA-γGlu-Trx-C20 diacid])
notes: as for B1
B3: N{Epsilon-36}-[2-[2-[2-[[2-[2-[2-[[(4S)-4-carboxy-4-[[4-[(19-carboxynonadecanoylamino)methyl]cyclohexanecarbonyl]amino]butanoyl]amino]ethoxy]ethoxy]acetyl]amino … (peptide)
peptide: H[Aib]EGTFTSDVSSYLEEQAAREFIAWLVRGK([AEEA-AEEA-γGlu-Trx-C20 diacid])GGGGSK([AEEA-AEEA-γGlu-Trx-C20 diacid])
notes: as for B1
B4: N{Epsilon-36}-[2-[2-[2-[[2-[2-[2-[[(4S)-4-carboxy-4-[[4-[(19-carboxynonadecanoylamino)methyl]cyclohexanecarbonyl]amino]butanoyl]amino]ethoxy]ethoxy]acetyl]amino … (peptide)
peptide: H[Aib]EGTFTSDVSSYLEEQAAREFIAWLVRGK([AEEA-AEEA-γGlu-Trx-C20 diacid])GEGPAK([AEEA-AEEA-γGlu-Trx-C20 diacid])
notes: Double-acylated, C-terminally extended GLP-1 analogue made by SPPS; also called 16
B5: N{Alpha}([Aib8,Glu22,Arg26,Arg34]-GLP-1-(7-37)-peptidyl)-N{Epsilon}[2-[2-[2-[[2-[2-[2-[[(4S)-4-carboxy-4-[[4-[(19-carboxynonadecanoylamino)methyl]cyclohexanecar … (peptide)
peptide: H[Aib]EGTFTSDVSSYLEEQAAREFIAWLVRGRGK([AEEA-AEEA-γGlu-Trx-C20 diacid])SPEK([AEEA-AEEA-γGlu-Trx-C20 diacid])
notes: Double-acylated, C-terminally extended GLP-1 analogue made by SPPS; also called 11
B6: N{Epsilon-18}-[2-[2-[2-[[2-[2-[2-[[(4S)-4-carboxy-4-[[4-[(19-carboxynonadecanoylamino)methyl]cyclohexanecarbonyl]amino]butanoyl]amino]ethoxy]ethoxy]acetyl]amino … (peptide)
peptide: H[Aib]EGTFTSDVSK([AEEA-AEEA-γGlu-Trx-C20 diacid])YLEEQAAREFIAWLVRGRGGGGSK([AEEA-AEEA-γGlu-Trx-C20 diacid])
notes: as for B1
B7: N{Epsilon-31}-[2-[2-[2-[[2-[2-[2-[[(4S)-4-carboxy-4-[[4-[(19-carboxynonadecanoylamino)methyl]cyclohexanecarbonyl]amino]butanoyl]amino]ethoxy]ethoxy]acetyl]amino … (peptide)
peptide: H[Aib]EGTFTSDVSSYLEEQAAREFIAK([AEEA-AEEA-γGlu-Trx-C20 diacid])LVRGRGGGGSK([AEEA-AEEA-γGlu-Trx-C20 diacid])
notes: as for B1
B8: N{Alpha}([Aib8,Glu22,Arg26,Arg34]-GLP-1-(7-37)-peptidyl)-N{Epsilon}[2-[2-[2-[[2-[2-[2-[[(4S)-4-carboxy-4-[[4-[(19-carboxynonadecanoylamino)methyl]cyclohexanecar … (peptide)
peptide: H[Aib]EGTFTSDVSSYLEEQAAREFIAWLVRGRGK([AEEA-AEEA-γGlu-Trx-C20 diacid])SAEK([AEEA-AEEA-γGlu-Trx-C20 diacid])
notes: Double-acylated, C-terminally extended GLP-1 analogue made by SPPS; also called 13
B9: N{Epsilon-23}-[2-[2-[2-[[2-[2-[2-[[(4S)-4-carboxy-4-[[4-[(19-carboxynonadecanoylamino)methyl]cyclohexanecarbonyl]amino]butanoyl]amino]ethoxy]ethoxy]acetyl]amino … (peptide)
peptide: H[Aib]EGTFTSDVSSYLEEK([AEEA-AEEA-γGlu-Trx-C20 diacid])AAREFIAWLVRGRGGGGSK([AEEA-AEEA-γGlu-Trx-C20 diacid])
notes: as for B1
B10: N{Epsilon-27}-[(2S)-2-amino-6-[[(2S)-2-amino-6-[[(4S)-4-carboxy-4-(19-carboxynonadecanoylamino)butanoyl]amino]hexanoyl]amino]hexanoyl]-[Aib8,Glu22,Arg26,Lys27,A … (peptide)
peptide: H[Aib]EGTFTSDVSSYLEEQAARKFIAWLVRGRGGGGSK
modifications: not fully specified (residues 21, 36)
notes: Double-acylated, C-terminally extended GLP-1 analogue made by SPPS; The printed name has a typographic slip ('R2S)' for '[(2S)')
B11: N{Alpha}([Aib8,Glu22,Arg26,Arg34]-GLP-1-(7-37)-peptidyl)-N{Epsilon}[2-[2-[2-[[2-[2-[2-[[(4S)-4-carboxy-4-[[4-[(19-carboxynonadecanoylamino)methyl]cyclohexanecar … (peptide)
peptide: H[Aib]EGTFTSDVSSYLEEQAAREFIAWLVRGRGK([AEEA-AEEA-γGlu-Trx-C20 diacid])PEGK([AEEA-AEEA-γGlu-Trx-C20 diacid])
notes: Double-acylated, C-terminally extended GLP-1 analogue made by SPPS; also called 12

Legend:
human GLP-1 receptor [1] = target: T1, human GLP-1 receptor (human, UniProt P43220 24-463); assay: competitive binding (SPA): displacement of 125I-GLP-1(7-36)NH2 from BHK cell membranes with human GLP-1 receptor; high HSA (2.0% final)
T1 construct: whole, on cells
Experimental: (§1) For the receptor binding assay in the presence of low HSA (0.005%) 50 μl of the assay buffer was added to each well of an assay plate. […] For the receptor binding assay in the presence of high HSA (2%) 50 μl of the 8% albumin stock was added to each well of an assay plate. […] Cell membrane aliquots were thawed and diluted to their working concentration. Fifty μl were added to each well in the assay plate. […] WGA SPA beads were suspended in assay buffer at 20 mg/ml. The suspension was diluted to 10 mg/ml in assay buffer just prior to addition to the assay plate. Fifty μl were added to each well in the assay plate. […] A 25 μl aliquot was reserved for measuring total counts/well. […] The assay plate was incubated for 2 h at 30° C. […] The assay plate was centrifuged for 10 min. […] The assay plate was read in a Packard TopCount NXT instrument.

human GLP-1 receptor [2] = target: T1, human GLP-1 receptor; assay: competitive binding (SPA): displacement of 125I-GLP-1(7-36)NH2 from BHK cell membranes with human GLP-1 receptor; low HSA (max. 0.001% final)
Experimental: as §1

human GLP-1 receptor [3] = target: T1, human GLP-1 receptor; assay: cell-based or functional assay

Binder	IC50 (human GLP-1 receptor [1]) [nM]	IC50 (human GLP-1 receptor [2]) [nM]	EC50 (pM), in vitro potency, CRE luciferase reporter gene assay in BHK cells expressing the human GLP-1 receptor (human GLP-1 receptor [3]) [pM]
B1	185	1.2	43
B2	275	0.75	55
B3	101	1.1	61
B4	602	1.4	25
B5	116	1.5	27
B6	≥ 1000	1	93
B7	≥ 1000	1.4	36
B8	160	1.4	24
B9	113	0.85	74
B10	383	0.43	260
B11	212	1.4	24
